B1: GpH7-A5/GpH7-B3 variant T335_09D/GpL16-k0 (heterodimerized antibody, He Ab) (antibody, human IgG1, kappa)
heavy 1: not shown
heavy 2: not shown
light: DIVMTQSPLSLPVTPGEPASISCQASESLVHSNRNTYLHWYLQKPGQSPQLLIYKVSNRFSGVPDRFSGSGSGTDFTLKISRVEAEDVGVYYCSQNTHVPPTFGQGTKVEIERTVAAPSVFIFPPSDEQLKSGTASVVCLLNNFYPREAKVQWKVDNALQSGNSQESVTEQDSKDSTYSLSSTLTLSKADYEKHKVYACEVTHQGLSSPVTKSFNRGEC
notes: Mutation in one H chain only; also called T335_09D He Ab
B2: GpH7-B3 variant Y296_20W/GpL16-k0 (homodimerized antibody, Ho Ab) (antibody, human IgG1, kappa)
heavy: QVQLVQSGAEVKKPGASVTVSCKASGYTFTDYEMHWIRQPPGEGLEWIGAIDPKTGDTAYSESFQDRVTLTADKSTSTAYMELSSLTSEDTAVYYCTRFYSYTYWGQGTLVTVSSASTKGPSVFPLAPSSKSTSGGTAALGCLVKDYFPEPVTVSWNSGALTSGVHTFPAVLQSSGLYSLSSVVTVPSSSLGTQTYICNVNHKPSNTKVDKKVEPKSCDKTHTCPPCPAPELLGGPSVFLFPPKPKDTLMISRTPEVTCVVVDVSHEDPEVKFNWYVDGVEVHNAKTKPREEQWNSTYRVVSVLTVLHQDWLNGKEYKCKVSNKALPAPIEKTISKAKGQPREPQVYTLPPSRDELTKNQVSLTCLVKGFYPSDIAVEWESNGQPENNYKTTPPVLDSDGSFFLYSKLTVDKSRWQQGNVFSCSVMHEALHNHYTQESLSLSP
light: B1 light
notes: Mutation in both H chains; also called Y296_20W Ho Ab
B3: GpH7-A5/GpH7-B3 variant Y296_20W/GpL16-k0 (heterodimerized antibody, He Ab) (antibody, human IgG1, kappa)
heavy 1: not shown
heavy 2: not shown
light: B1 light
notes: Mutation in one H chain only; also called Y296_20W He Ab
B4: GpH7-B3 variant T335_08L/GpL16-k0 (homodimerized antibody, Ho Ab) (antibody, human IgG1, kappa)
heavy: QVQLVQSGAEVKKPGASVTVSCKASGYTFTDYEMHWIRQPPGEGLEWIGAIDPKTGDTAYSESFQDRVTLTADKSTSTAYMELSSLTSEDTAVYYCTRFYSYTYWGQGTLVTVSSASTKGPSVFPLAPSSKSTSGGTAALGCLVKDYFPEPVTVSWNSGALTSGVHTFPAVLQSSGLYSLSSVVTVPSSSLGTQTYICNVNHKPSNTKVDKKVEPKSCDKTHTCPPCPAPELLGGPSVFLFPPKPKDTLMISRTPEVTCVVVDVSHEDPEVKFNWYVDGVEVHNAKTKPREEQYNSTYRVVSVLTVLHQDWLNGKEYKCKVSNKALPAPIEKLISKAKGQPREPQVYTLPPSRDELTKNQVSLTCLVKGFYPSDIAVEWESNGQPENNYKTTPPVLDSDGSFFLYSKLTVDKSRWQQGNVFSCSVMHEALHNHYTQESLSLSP
light: B1 light
notes: Mutation in both H chains; also called T335_08L Ho Ab
B5: GpH7-A5/GpH7-B3 variant T335_05P/GpL16-k0 (heterodimerized antibody, He Ab) (antibody, human IgG1, kappa)
heavy 1: not shown
heavy 2: not shown
light: B1 light
notes: Mutation in one H chain only; also called T335_05P He Ab
B6: GpH7-B3 variant T335_09D/GpL16-k0 (homodimerized antibody, Ho Ab) (antibody, human IgG1, kappa)
heavy: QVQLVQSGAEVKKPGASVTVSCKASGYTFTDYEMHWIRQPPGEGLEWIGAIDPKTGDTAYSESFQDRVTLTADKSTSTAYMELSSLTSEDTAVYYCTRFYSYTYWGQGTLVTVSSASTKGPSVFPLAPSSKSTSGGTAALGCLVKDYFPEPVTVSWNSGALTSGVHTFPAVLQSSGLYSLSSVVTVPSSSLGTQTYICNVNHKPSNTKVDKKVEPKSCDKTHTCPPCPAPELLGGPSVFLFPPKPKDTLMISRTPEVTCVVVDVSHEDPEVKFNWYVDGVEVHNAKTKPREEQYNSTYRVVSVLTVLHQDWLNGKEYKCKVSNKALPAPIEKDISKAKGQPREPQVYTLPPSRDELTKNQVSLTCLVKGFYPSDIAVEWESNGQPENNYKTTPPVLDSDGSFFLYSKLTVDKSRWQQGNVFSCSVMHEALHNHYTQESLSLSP
light: B1 light
notes: Mutation in both H chains; also called T335_09D Ho Ab
B7: GpH7-A5/GpH7-B3 variant S337_16H/GpL16-k0 (heterodimerized antibody, He Ab) (antibody, human IgG1, kappa)
heavy 1: not shown
heavy 2: not shown
light: B1 light
notes: Mutation in one H chain only; also called S337_16H He Ab
B8: GpH7-B3 variant T335_05P/GpL16-k0 (homodimerized antibody, Ho Ab) (antibody, human IgG1, kappa)
heavy: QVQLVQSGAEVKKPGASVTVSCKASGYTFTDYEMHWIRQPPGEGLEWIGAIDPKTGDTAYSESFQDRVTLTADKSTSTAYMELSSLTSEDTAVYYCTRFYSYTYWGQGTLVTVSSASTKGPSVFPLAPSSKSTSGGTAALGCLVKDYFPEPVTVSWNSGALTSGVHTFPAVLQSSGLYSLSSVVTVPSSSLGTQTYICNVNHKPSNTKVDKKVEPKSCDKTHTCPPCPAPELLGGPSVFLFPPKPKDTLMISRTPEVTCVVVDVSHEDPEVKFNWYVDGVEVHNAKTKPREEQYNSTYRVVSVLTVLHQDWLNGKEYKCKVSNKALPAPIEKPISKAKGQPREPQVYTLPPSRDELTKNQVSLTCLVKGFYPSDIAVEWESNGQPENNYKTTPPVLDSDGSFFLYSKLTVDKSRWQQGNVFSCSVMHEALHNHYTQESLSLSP
light: B1 light
notes: Mutation in both H chains; also called T335_05P Ho Ab
B9: GpH7-B3 variant T335_06M/GpL16-k0 (homodimerized antibody, Ho Ab) (antibody, human IgG1, kappa)
heavy: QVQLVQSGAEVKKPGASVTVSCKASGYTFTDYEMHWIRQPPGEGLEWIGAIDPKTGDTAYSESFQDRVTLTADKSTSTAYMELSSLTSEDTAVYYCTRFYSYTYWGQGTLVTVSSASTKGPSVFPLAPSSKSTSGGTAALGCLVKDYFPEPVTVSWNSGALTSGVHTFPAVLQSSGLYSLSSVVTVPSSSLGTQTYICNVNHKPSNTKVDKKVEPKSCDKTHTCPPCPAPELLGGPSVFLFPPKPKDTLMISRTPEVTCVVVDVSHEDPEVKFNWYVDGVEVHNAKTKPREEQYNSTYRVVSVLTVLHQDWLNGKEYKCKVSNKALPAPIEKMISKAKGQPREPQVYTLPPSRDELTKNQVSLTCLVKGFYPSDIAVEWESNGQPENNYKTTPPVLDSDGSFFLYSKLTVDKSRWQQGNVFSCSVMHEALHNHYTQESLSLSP
light: B1 light
notes: Mutation in both H chains; also called T335_06M Ho Ab
B10: GpH7-A5/GpH7-B3 variant S239_18N/GpL16-k0 (heterodimerized antibody, He Ab) (antibody, human IgG1, kappa)
heavy 1: not shown
heavy 2: not shown
light: B1 light
notes: Mutation in one H chain only; also called S239_18N He Ab
B11: GpH7-A5/GpH7-B3 variant Y300_08L/GpL16-k0 (heterodimerized antibody, He Ab) (antibody, human IgG1, kappa)
heavy 1: not shown
heavy 2: not shown
light: B1 light
notes: Mutation in one H chain only; also called Y300_08L He Ab
B12: GpH7-A5/GpH7-B3 variant T335_08L/GpL16-k0 (heterodimerized antibody, He Ab) (antibody, human IgG1, kappa)
heavy 1: not shown
heavy 2: not shown
light: B1 light
notes: Mutation in one H chain only; also called T335_08L He Ab
B13: GpH7-B3 variant S337_16H/GpL16-k0 (homodimerized antibody, Ho Ab) (antibody, human IgG1, kappa)
heavy: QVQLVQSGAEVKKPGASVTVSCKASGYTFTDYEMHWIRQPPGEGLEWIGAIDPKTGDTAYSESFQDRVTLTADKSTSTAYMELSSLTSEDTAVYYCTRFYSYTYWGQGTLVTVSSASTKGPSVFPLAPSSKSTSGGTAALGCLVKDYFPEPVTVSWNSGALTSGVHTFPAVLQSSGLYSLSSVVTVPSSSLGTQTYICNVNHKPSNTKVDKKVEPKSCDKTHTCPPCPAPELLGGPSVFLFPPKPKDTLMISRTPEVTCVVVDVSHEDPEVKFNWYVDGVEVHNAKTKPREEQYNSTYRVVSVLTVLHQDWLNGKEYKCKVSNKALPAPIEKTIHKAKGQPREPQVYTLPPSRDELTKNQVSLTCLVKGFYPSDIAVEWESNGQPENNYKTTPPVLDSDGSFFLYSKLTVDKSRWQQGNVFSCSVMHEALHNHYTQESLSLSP
light: B1 light
notes: Mutation in both H chains; also called S337_16H Ho Ab
B14: GpH7-A5/GpH7-B3 variant S337_01G/GpL16-k0 (heterodimerized antibody, He Ab) (antibody, human IgG1, kappa)
heavy 1: not shown
heavy 2: not shown
light: B1 light
notes: Mutation in one H chain only; also called S337_01G He Ab
B15: GpH7-A5/GpH7-B3 variant T335_06M/GpL16-k0 (heterodimerized antibody, He Ab) (antibody, human IgG1, kappa)
heavy 1: not shown
heavy 2: not shown
light: B1 light
notes: Mutation in one H chain only; also called T335_06M He Ab
B16: GpH7-B3 variant Y300_08L/GpL16-k0 (homodimerized antibody, Ho Ab) (antibody, human IgG1, kappa)
heavy: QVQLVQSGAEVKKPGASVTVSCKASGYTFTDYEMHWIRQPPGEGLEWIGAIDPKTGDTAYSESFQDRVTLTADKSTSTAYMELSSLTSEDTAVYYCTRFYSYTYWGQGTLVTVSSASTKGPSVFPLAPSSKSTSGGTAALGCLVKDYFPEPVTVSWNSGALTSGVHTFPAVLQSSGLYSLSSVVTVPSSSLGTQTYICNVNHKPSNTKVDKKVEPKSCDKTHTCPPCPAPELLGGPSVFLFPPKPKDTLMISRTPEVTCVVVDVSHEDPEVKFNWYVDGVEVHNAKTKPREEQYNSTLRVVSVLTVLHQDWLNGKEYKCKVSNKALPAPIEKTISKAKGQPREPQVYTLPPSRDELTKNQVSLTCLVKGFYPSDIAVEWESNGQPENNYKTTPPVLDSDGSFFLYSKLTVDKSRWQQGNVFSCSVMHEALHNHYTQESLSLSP
light: B1 light
notes: Mutation in both H chains; also called Y300_08L Ho Ab
B17: GpH7-A5/GpH7-B3 variant S324_06M/GpL16-k0 (heterodimerized antibody, He Ab) (antibody, human IgG1, kappa)
heavy 1: not shown
heavy 2: not shown
light: B1 light
notes: Mutation in one H chain only; also called S324_06M He Ab
B18: GpH7-A5/GpH7-B3 variant S298_03V/GpL16-k0 (heterodimerized antibody, He Ab) (antibody, human IgG1, kappa)
heavy 1: not shown
heavy 2: not shown
light: B1 light
notes: Mutation in one H chain only; also called S298_03V He Ab
B19: GpH7-A5/GpH7-B3 variant S324_09D/GpL16-k0 (heterodimerized antibody, He Ab) (antibody, human IgG1, kappa)
heavy 1: not shown
heavy 2: not shown
light: B1 light
notes: Mutation in one H chain only; also called S324_09D He Ab
B20: GpH7-A5/GpH7-B3 variant S324_20W/GpL16-k0 (heterodimerized antibody, He Ab) (antibody, human IgG1, kappa)
heavy 1: not shown
heavy 2: not shown
light: B1 light
notes: Mutation in one H chain only; also called S324_20W He Ab
B21: GpH7-A5/GpH7-B3 variant S324_14T/GpL16-k0 (heterodimerized antibody, He Ab) (antibody, human IgG1, kappa)
heavy 1: not shown
heavy 2: not shown
light: B1 light
notes: Mutation in one H chain only; also called S324_14T He Ab

The binders below were run against T1, FcγRIIIa extracellular domain with C-terminal His tag (human, UniProt P08637 17-208) (assay: SPR (Biacore), antibody captured on antigen-peptide chip, FcγR analyte, relative binding).
T1 construct: extracellular domain; also called 3a; FcgRIIIa
T1 sequence (P08637 17-208): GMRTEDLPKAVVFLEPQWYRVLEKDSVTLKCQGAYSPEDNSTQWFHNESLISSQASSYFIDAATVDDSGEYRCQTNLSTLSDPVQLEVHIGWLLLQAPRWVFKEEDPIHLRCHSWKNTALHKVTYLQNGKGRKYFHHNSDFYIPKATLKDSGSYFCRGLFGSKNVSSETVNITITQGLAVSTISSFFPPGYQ

He/Con_3a	Ho/Con_3a	Binder
108 % of GpH7-A5/GpH7-B3/GpL16-k0 (=100)		B1
	146 % of GpH7-B3/GpL16-k0 (=100)	B2
135 % of GpH7-A5/GpH7-B3/GpL16-k0 (=100)		B3
	103 % of GpH7-B3/GpL16-k0 (=100)	B4
105 % of GpH7-A5/GpH7-B3/GpL16-k0 (=100)		B5
	114 % of GpH7-B3/GpL16-k0 (=100)	B6
108 % of GpH7-A5/GpH7-B3/GpL16-k0 (=100)		B7
	119 % of GpH7-B3/GpL16-k0 (=100)	B8
	107 % of GpH7-B3/GpL16-k0 (=100)	B9
110 % of GpH7-A5/GpH7-B3/GpL16-k0 (=100)		B10
105 % of GpH7-A5/GpH7-B3/GpL16-k0 (=100)		B11
102 % of GpH7-A5/GpH7-B3/GpL16-k0 (=100)		B12
	112 % of GpH7-B3/GpL16-k0 (=100)	B13
102 % of GpH7-A5/GpH7-B3/GpL16-k0 (=100)		B14
102 % of GpH7-A5/GpH7-B3/GpL16-k0 (=100)		B15
	105 % of GpH7-B3/GpL16-k0 (=100)	B16
113 % of GpH7-A5/GpH7-B3/GpL16-k0 (=100)		B17
109 % of GpH7-A5/GpH7-B3/GpL16-k0 (=100)		B18
101 % of GpH7-A5/GpH7-B3/GpL16-k0 (=100)		B19
102 % of GpH7-A5/GpH7-B3/GpL16-k0 (=100)		B20
103 % of GpH7-A5/GpH7-B3/GpL16-k0 (=100)		B21

— patent publication US20180155451A1 (published 2018)
